From the supplement of paper PMC9170038

System: MS2 coat protein
Assay: apparent KD of MS2 coat protein; designed switch direction (-1 OFF switch, 1 ON switch): -1; higher = weaker reporter binding
In short: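 The buffer was Tris-HCl pH 7.5 with KCl, MgCl2, BSA, DTT, tRNA and Tween-20. In it, SNAP-549-labelled MS2 coat protein was titrated in doubling steps from 0.7 or 1.5 nM to 3 µM over chip-bound RNA switches transcribed by stalled E. coli RNA polymerase on Illumina chips. Apparent KD is the per-design median over clusters of curve fits to normalised fluorescence.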

[1] = Eterna round: R95, input ligand: microRNA oligo, concentration not stated
[2] = Eterna round: R95, input ligand: FMN 200 uM
[3] = Eterna round: R95, input ligand: none
[4] = input ligand: microRNA oligo, concentration not stated

UUUUACAAGCUUAGAUCCUACAUGAGGAUCACCCAUGUGGUCCGGUGACGUGAGUCACCGGACUAAGCUCGUCUUGU [JL TOV1 3.71] (Eterna round: R97, puzzle: Sensor, turn-off variant 1)
apparent KD of MS2 coat protein (input ligand: FMN 200 uM): 124 nM | apparent KD of MS2 coat protein (input ligand: none): 114 nM

AAUAACAGAGGAUAUACUGUUUUAUGUGUUUGUUGUUUUAAACAUGAGGAUCACCCAUGUAGAAGGCUGAAUAA [JMF 19] (puzzle: Exclusion 2)
apparent KD of MS2 coat protein [1]: 18.4 nM

ACAAGCUUUUUGUUCGUCUUAUAAUAUUCUAAGAGGAUAACAUGAGGAUCACCCAUGUAACAAAGACGGACUCAUGU [Sesor Array 14 - Jieux - Sensor v3, turn-off variant 2] (puzzle: Sensor v3, turn-off variant 2)
apparent KD of MS2 coat protein [2]: 13 nM | apparent KD of MS2 coat protein [1]: 139 nM | apparent KD of MS2 coat protein [3]: 11.7 nM

CCGAAACAUGAGGAUCACCCAUGUGAGGAUAUGAGCGUCUAGUUGAGAGAUUGGACGCUCAGAAGGCACAAAGG [JR_Ex1_Sub074] (Eterna round: R97, puzzle: Exclusion 1)
apparent KD of MS2 coat protein (input ligand: FMN 200 uM): 105 nM | apparent KD of MS2 coat protein (input ligand: none): 35.5 nM

GCAGCAAAUUCCACUAAAACCACAUGAGGAUCACCCAUGUCUCAGGAUAUGGUCUGGAUUACAGGCCAGAAGGGAGAAAGCUGC [Eli exng3 - 056] (Eterna round: R96, puzzle: Exclusion NG 3)
apparent KD of MS2 coat protein (input ligand: FMN 200 uM): 12.3 nM | apparent KD of MS2 coat protein [4]: 9.52 nM | apparent KD of MS2 coat protein (input ligand: none): 14.8 nM

AAUUAGCAAGCGAGGUCCCACAUGAGGAUCACCCAUGUGCUCGUCUUAUAAGGUACUGUGACGAGAGUCACGGUACC [Mat - Sensor, turn-off var - Eli Mod - D35] (Eterna round: R97, puzzle: Sensor, turn-off variant 1)
apparent KD of MS2 coat protein (input ligand: FMN 200 uM): 13.8 nM | apparent KD of MS2 coat protein (input ligand: none): 15.2 nM

GGAAAACAUGAGGAUCACCCAUGUAAGGAUAUGCAAAAGGAUAUAGAAGGAAUAAAAAGCAGAAGGUACAAAGG [salish99-ex1_r3_096] (puzzle: Exclusion 1)
apparent KD of MS2 coat protein [2]: 116 nM | apparent KD of MS2 coat protein [1]: 45.7 nM | apparent KD of MS2 coat protein [3]: 66.6 nM

GUGACUGAUGUCAGGAUAUCCGGUGCUAAAGUACAGGAGAAGGGACAUGAGGAUCACCCAUGUAACUUAGCCAG [BmEX4 B.7] (Eterna round: R97, puzzle: Brourd's mod of Exclusion 4)
apparent KD of MS2 coat protein (input ligand: FMN 200 uM): 23.2 nM | apparent KD of MS2 coat protein (input ligand: none): 15.4 nM

UAAAAGGUAGGAUAUACGAAAAAAAAGGGUAGAAAAAAAACACAUGAGGAUCACCCAUGUAGAAGGACCAAAAU [salish99_ex2_r3_041] (puzzle: Exclusion 2)
apparent KD of MS2 coat protein [2]: 89.7 nM | apparent KD of MS2 coat protein [1]: 28.6 nM | apparent KD of MS2 coat protein [3]: 26.9 nM

UAUCGGCGGACCCAGGCUUUUUGCUCGUCUUAUGCUAUGACAUGAGGAUCACCCAUGUGGUGGUGGUCCGUUGUAGU [JL ViennaUCT Bitein mod 11] (puzzle: Sensor v3, turn-off variant 2)
apparent KD of MS2 coat protein [2]: 21.1 nM | apparent KD of MS2 coat protein [1]: 11.3 nM | apparent KD of MS2 coat protein [3]: 19.5 nM

GUACUGACAGGAUAUACAUGAGGAUCACCCAUGUGCCCUUAAUGAUGCAAAGCAUCAAGUAGAAGGGUCUGUAC [Omei Ex3 Model Bachelor's Dilema v22] (Eterna round: R97, puzzle: Exclusion 3)
apparent KD of MS2 coat protein (input ligand: FMN 200 uM): 42.5 nM | apparent KD of MS2 coat protein (input ligand: none): 32.8 nM

CAUAGUUACACAGGAUAUAGUACAUGAGGAUCACCCAUGUAAUAAAUGAGAAUUUCGAAUGUAUACUAGAAGGGUGAAAUCUAC [Ostracism 54 - Jieux - Exclusion NG 2] (Eterna round: R96, puzzle: Exclusion NG 2)
apparent KD of MS2 coat protein (input ligand: FMN 200 uM): 206 nM | apparent KD of MS2 coat protein [4]: 144 nM | apparent KD of MS2 coat protein (input ligand: none): 171 nM

UCGGGAAGAGGAUAUACAUAGAAAUAGAUUCAUGUAAAACUACAUGAGGAUCACCCAUGUAGAAGGCUUUCCGU [Mat - Exclusion 2 - JL Mod - D55] (Eterna round: R97, puzzle: Exclusion 2)
apparent KD of MS2 coat protein (input ligand: FMN 200 uM): 146 nM | apparent KD of MS2 coat protein (input ligand: none): 24.2 nM

AGUCCAGACGGACCCUCUAACAUGAGGAUCACCCAUGUAGCGGAGGAUAUCCGAAUUUGGGCGACGGAGAAGGCCGUUGCAGGG [Edsosobi] (Eterna round: R96, puzzle: Exclusion NG 3)
apparent KD of MS2 coat protein (input ligand: FMN 200 uM): 21.3 nM | apparent KD of MS2 coat protein [4]: 27 nM | apparent KD of MS2 coat protein (input ligand: none): 27.5 nM

UAUUAGCAAGCGAGAUCCCACAUGAGGAUCACCCAUGUGCUCGUCUUAUAAAGUACUGUGACGAUAGUCACGGUACA [Mat - Sensor, turn-off var - Eli Mod - D8] (Eterna round: R97, puzzle: Sensor, turn-off variant 1)
apparent KD of MS2 coat protein (input ligand: FMN 200 uM): 16.6 nM | apparent KD of MS2 coat protein (input ligand: none): 15.6 nM

CUCGGGCUGGUGAGGAUAUCGGGCUCUAAAGGGCUCGAGAAGGCACAUGAGGAUCACCCAUGUAAUGGCUCGGG [-29.3, -27.9 kcal, A 23%, 4-4bis] (Eterna round: R97, puzzle: Brourd's mod of Exclusion 4)
apparent KD of MS2 coat protein (input ligand: FMN 200 uM): 17.3 nM | apparent KD of MS2 coat protein (input ligand: none): 24.5 nM

UGUUGUUACGCAGGAUAUUGCCAACAGGCAGUAGGAUAUCCGAAAGGAGAAGGACCGCCAACAGGCGAGAAGGGCGGGUUAACA [pwkr exNG2 2xF7 2xFMN.10] (Eterna round: R96, puzzle: Exclusion NG 2)
apparent KD of MS2 coat protein (input ligand: FMN 200 uM): 370 nM | apparent KD of MS2 coat protein [4]: 227 nM | apparent KD of MS2 coat protein (input ligand: none): 16.3 nM

UUAUUGUUAGAGGAUAUAUUAAGGUAUGCUUUGAUAGAAGGCUAUACAUGAGGAUCACCCAUGUUUUUUGGGAU [JR_Ex6_Sub076] (Eterna round: R97, puzzle: Exclusion 6)
apparent KD of MS2 coat protein (input ligand: FMN 200 uM): 654 nM | apparent KD of MS2 coat protein (input ligand: none): 328 nM

GGUGCGUCUGUGAGGAUAUGCUGGUCCUUGGCUCGGCAGAAGGCACAUGAGGAUCACCCAUGUGGUGUCGUGCC [salish99_Bmod_ex4_058] (puzzle: Brourd's mod of Exclusion 4)
apparent KD of MS2 coat protein [1]: 16.7 nM

UAGAGACAUGAGGAUCACCCAUGUCAGGAUAUCUGCUUAGACAGGUUCACGGUCUAGUAGAGAAGGGACUGGAG [Eternabot (L2) Solution 42] (Eterna round: R97, puzzle: Exclusion 1)
apparent KD of MS2 coat protein (input ligand: FMN 200 uM): 121 nM | apparent KD of MS2 coat protein (input ligand: none): 87.4 nM

UGAUCAAAUGUCAGGAUAUGCUGUUGGAAACAACAGCAGAAGGGACAUGAGGAUCACCCAUGUCUUGUCGAUUU [Magic-02] (puzzle: Brourd's mod of Exclusion 4)
apparent KD of MS2 coat protein [1]: 20.4 nM

CUUUUGUGAGGAUAUCAGUAGUAAAAAAAUAAAAUUACUACUGAGAAGGCACAUGAGGAUCACCCAUGUUCCUC [salish99_ex4_r3_009] (puzzle: Exclusion 4)
apparent KD of MS2 coat protein [2]: 257 nM | apparent KD of MS2 coat protein [1]: 39.7 nM | apparent KD of MS2 coat protein [3]: 38.4 nM

GUCGAGUGAGGAUAUGGUGAGUAGUGCCAGAGCGCUGCUCACCAGAAGGCACAUGAGGAUCACCCAUGUAUGUC [Mat - Exclusion 4 - Mod of JL - D10] (puzzle: Exclusion 4)
apparent KD of MS2 coat protein [1]: 12.3 nM

UGCAGACGAGGAUAUGAUUAAUAAUACAUGAGGAUCACCCAUGUAAUACUGAUCUAUGGAUCAGAAGGUGUCUGCU [E5/6-B3] (Eterna round: R97, puzzle: Exclusion 5)
apparent KD of MS2 coat protein (input ligand: FMN 200 uM): 20.8 nM | apparent KD of MS2 coat protein (input ligand: none): 24.1 nM

CUCUUGGCAGGAUAUGCUCUCUUAGACAUGAGGAUCACCCAUGUGUUCAUUCUUUCUUUUGCAGAAGGGCCUUAAC [JR_E5_Sub046] (puzzle: Exclusion 5)
apparent KD of MS2 coat protein [1]: 65.2 nM

CAUACUGAAGUUAGGAUAUUCGGACGUAUACGGAUGGAGAAGGGACAUGAGGAUCACCCAUGUAGAUAGUAAAG [EX-4 Malc #12] (puzzle: Brourd's mod of Exclusion 4)
apparent KD of MS2 coat protein [2]: 22.7 nM | apparent KD of MS2 coat protein [1]: 23.1 nM | apparent KD of MS2 coat protein [3]: 22.3 nM

GUUAAACAUGAGGAUCACCCAUGUAAGGAUAUGCUGCGGUCGCGAUGAAGUGACUGCAGCAGAAGGUACAAAUG [Mat - Mod of JL D59] (puzzle: Exclusion 1)
apparent KD of MS2 coat protein [2]: 89.8 nM | apparent KD of MS2 coat protein [1]: 92 nM | apparent KD of MS2 coat protein [3]: 102 nM

AGUACUAACACGGGAGUGUUAGUACAAUAAGCUUGUGAAACAUGAGGAUCACCCAUGUCCUCAUAAGCUCGUCUUAU [salish99_TOv2_r3_060] (Eterna round: R96, puzzle: Sensor v3, turn-off variant 2)
apparent KD of MS2 coat protein (input ligand: FMN 200 uM): 14.5 nM | apparent KD of MS2 coat protein [4]: 436 nM | apparent KD of MS2 coat protein (input ligand: none): 17.4 nM

GAGUGUUGAGGAUAUACAUGAGGAUCACCCAUGUGCUUCAGCUAGGAGACUAGCAUUGGUAGAAGGCAAUACUC [Mod of lroppy 6 - Jieux - Exclusion 3] (Eterna round: R97, puzzle: Exclusion 3)
apparent KD of MS2 coat protein (input ligand: FMN 200 uM): 90.7 nM | apparent KD of MS2 coat protein (input ligand: none): 14.8 nM

CAGUACUGAGGAUAUACAUGAGGAUCACCCAUGUGUUCCAGCUAGGAAACUAGCAAAAGUAGAAGGCAGUACUG [Ex3: 828] (Eterna round: R96, puzzle: Exclusion 3)
apparent KD of MS2 coat protein (input ligand: FMN 200 uM): 646 nM | apparent KD of MS2 coat protein [4]: 22.1 nM | apparent KD of MS2 coat protein (input ligand: none): 25.9 nM

GACAGCGGAGGAUAUGCCGUAGAUUACAUGAGGAUCACCCAUGUGGGCUGUAAGUAAUAGGCAGAAGGCUGCCGUU [Eternabot (Original) Solution 33] (Eterna round: R97, puzzle: Exclusion 5)
apparent KD of MS2 coat protein (input ligand: FMN 200 uM): 144 nM | apparent KD of MS2 coat protein (input ligand: none): 109 nM

GGUGCGUAUGUGAGGAUAUGCUGGUCCUUGGAUCAGCAGAAGGCACAUGAGGAUCACCCAUGUGGUGUCGUGCC [salish99_Bmod_Ex4_019] (Eterna round: R96, puzzle: Brourd's mod of Exclusion 4)
apparent KD of MS2 coat protein (input ligand: FMN 200 uM): 132 nM | apparent KD of MS2 coat protein [4]: 741 nM | apparent KD of MS2 coat protein (input ligand: none): 1050 nM

AAAAACAAGCCCAUGCUCGUCUUAAGAUCGAAAGAUCAAACAUGAGGAUCACCCAUGUGCGAGCAUGGGUGAUCCUC [Sensor v2, turn off variant 2 (JL Turnoff v2 4 - MOD3)] (Eterna round: R96, puzzle: Sensor v2, turn-off variant 2)
apparent KD of MS2 coat protein (input ligand: FMN 200 uM): 21.9 nM | apparent KD of MS2 coat protein [4]: 10.2 nM | apparent KD of MS2 coat protein (input ligand: none): 16.6 nM
